{"source": "patent US20080311034A1", "about": "(published 2008)", "key": {"[1]": {"molecular_target": "T1, recombinant human His-tagged FcγRI (extracellular domain, R&D Systems #1257-FC-050) (human, UniProt P12314 16-292)", "T1 construct": "extracellular domain; Bought; also called CD64; recombinant, soluble, human FcγRI", "T1 sequence (P12314 16-292)": "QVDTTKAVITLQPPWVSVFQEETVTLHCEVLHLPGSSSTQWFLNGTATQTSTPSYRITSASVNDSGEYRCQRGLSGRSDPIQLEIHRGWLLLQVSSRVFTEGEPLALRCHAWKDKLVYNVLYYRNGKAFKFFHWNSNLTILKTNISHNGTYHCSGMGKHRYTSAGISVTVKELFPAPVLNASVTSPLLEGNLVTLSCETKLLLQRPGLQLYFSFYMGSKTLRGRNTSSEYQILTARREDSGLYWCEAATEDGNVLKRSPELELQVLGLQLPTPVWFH", "assay": "ELISA"}, "[2]": {"molecular_target": "T2, recombinant human His-tagged FcγRIIa (R&D Systems #1330-CD-050) (human, UniProt P12318 36-218, limits assumed)", "T2 construct": "Bought; also called CD32a; recombinant, soluble, human FcγRIIa", "T2 sequence (looked up)": "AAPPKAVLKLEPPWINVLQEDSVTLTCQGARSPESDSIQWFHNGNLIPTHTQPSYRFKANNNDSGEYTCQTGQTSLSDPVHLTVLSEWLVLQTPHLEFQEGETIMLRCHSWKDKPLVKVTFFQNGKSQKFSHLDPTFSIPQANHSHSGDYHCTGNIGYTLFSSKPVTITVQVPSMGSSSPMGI", "assay": "AlphaScreen", "description": "(§1) FcγRIIa (CD32a) AlphaScreen—Nickel acceptor beads (Perkin Elmer #6760619C) were diluted 1:50 in assay buffer (PBS, pH 7.4, 4 mg/ml BSA, 0.01% Tween-20), and 27.5 μl were added to each well of a Nunc V-bottom polypropylene plate (VWR # 62409-108) (Powers G., Notebook 9006, pp. 169-175, 182-185). A 2.0 μg/ml solution of recombinant human His-tagged FcγRIIa (R&D Systems #1330-CD-050) was prepared in assay buffer and 27.5 μl added to each well of a separate Nunc V bottom polypropylene plate. Titrations of test Abs were prepared in the Nunc V bottom polypropylene plate starting at 30 μg/ml. A 2 μg/ml solution of biotinylated goat F(ab′)₂ anti-human IgG F(ab′)₂ (Jackson Immunoresearch #109-066-097) was prepared in assay buffer and 27.5 μl added to each well of another Nunc V bottom polypropylene plate. A 1:50 dilution of streptavidin donor beads (PerkinElmer # 6760002) was prepared in assay buffer and 27.5 μl added to each well of another Nunc V bottom polypropylene plate. A volume of 5 μl of each reagent was added to the corresponding quadrants of a low-volume, non-binding white 384-well plate (Corning # 3673) in the following order: acceptor beads, FcγRIIa, test Ab, biotinylated anti-human IgG F(ab′)₂, and streptavidin donor beads. The plates were incubated for 30 minutes with shaking and the O.D.s determined using an Envision plate reader.\n(§2) FcγRIIb (CD32b) AlphaScreen—The assay was performed as described above for FcγRIIa except that FcγRIIa was replaced with FcγRIIb (R&D Systems #1875-CD-050)."}, "[3]": {"molecular_target": "T3, recombinant human FcγRIIb (R&D Systems #1875-CD-050) (human, UniProt P31994 46-217, limits assumed)", "T3 construct": "Bought; also called CD32b; recombinant, soluble, human FcγRIIb", "T3 sequence (looked up)": "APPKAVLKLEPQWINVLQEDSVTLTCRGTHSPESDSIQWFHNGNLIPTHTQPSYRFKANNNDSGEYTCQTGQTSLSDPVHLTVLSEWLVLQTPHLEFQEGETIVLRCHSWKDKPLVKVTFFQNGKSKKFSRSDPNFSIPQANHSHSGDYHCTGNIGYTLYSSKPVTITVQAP", "assay": "AlphaScreen", "description": "as §1, §2"}}, "data": [{"binder": "YB2/0-CNTO 860 A330I (antibody, IgG1, N-linked glycan at heavy chain Asn297 (YB2/0-type, low fucose); not carried by the letters, IgG1/kappa Fc variant; stably expressed in YB2/0 cells (p4177/p2402); EU numbering; also called A330I (YB2/0 cell-derived); A330I mutant expressed in YB2/0 cells; copies: 2 + 2) heavy: not shown light: DIQMTQSPSSLSASVGDRVTITCKASQDIRKYLNWYQQKPGKAPKLLIYYATSLADGVPSRFSGSGSGTDYTFTISSLQPEDIATYYCLQHGESPYTFGQGTKLEITRTVAAPSVFIFPPSDEQLKSGTASVVCLLNNFYPREAKVQWKVDNALQSGNSQESVTEQDSKDSTYSLSSTLTLSKADYEKHKVYACEVTHQGLSSPVTKSFNRGEC", "values": [{"measurement": "fold reduced binding", "setting": "[1]", "result": "< 2", "unit": "fold"}, {"measurement": "fold reduced binding", "setting": "[2]", "result": 8, "unit": "fold"}, {"measurement": "fold reduced binding", "setting": "[3]", "result": 500, "unit": "fold"}]}]}
